The results in this text go back to paper PMC3928684 (Biotechnology and bioengineering, 2009).

The target in data set [1] is T1, LovD (simvastatin synthase) (Aspergillus terreus, UniProt Q9Y7D1).
T1 sequence (Q9Y7D1 1-413): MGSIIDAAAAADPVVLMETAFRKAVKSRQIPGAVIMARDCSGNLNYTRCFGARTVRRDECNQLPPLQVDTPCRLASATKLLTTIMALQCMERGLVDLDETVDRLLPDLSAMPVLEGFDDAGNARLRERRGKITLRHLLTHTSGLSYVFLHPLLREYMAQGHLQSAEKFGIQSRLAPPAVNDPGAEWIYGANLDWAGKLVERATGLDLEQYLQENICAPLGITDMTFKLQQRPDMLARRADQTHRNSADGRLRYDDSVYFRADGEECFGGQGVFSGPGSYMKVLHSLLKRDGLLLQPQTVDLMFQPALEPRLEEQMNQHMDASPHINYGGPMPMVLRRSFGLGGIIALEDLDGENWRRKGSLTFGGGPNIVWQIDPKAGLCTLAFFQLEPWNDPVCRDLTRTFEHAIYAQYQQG
Nature of the data set: HPLC at […] nm, conversion of MJSS to simvastatin sodium salt. The class given is biochemical. The settings on record: read-out: Wild Type; MJSS fixed at 2 mM, DMB-S-MMP 0.25-5 mM; 10% DMSO.

The test system of data set [2] is C[C@H]1C=C2C=C[C@H](C)[C@H](CC[C@@H](O)C[C@@H](O)CC(=O)O)[C@H]2[C@@H](O)C1. Nature of the data set: purified protein. The class given is biochemical, Aspergillus terreus. The settings on record: DMB-S-MMP fixed at 2 mM, MJSS 0.25-5 mM; 10% DMSO.
In data set [3] the test system is CCC(C)(C)C(=O)SCCC(=O)OC. In words: purified protein. The class given is biochemical, Aspergillus terreus. The settings on record: MJSS fixed at 2 mM, DMB-S-MMP 0.25-5 mM; 10% DMSO.
Substrate in data set [4]: C[C@H]1C=C2C=C[C@H](C)[C@H](CC[C@@H](O)C[C@@H](O)CC(=O)O)[C@H]2[C@@H](O)C1
Nature of the data set: purified protein. The class given is biochemical, Aspergillus terreus. As to conditions: DMB-S-MMP fixed at 2 mM, MJSS 0.25-5 mM; 10% DMSO. This is another data set of the same source.

For the molecule `CCC(C)(C)C(=O)SCCC(=O)OC` [DMB-S-MMP, α-dimethylbutyryl-S-methyl-3-mercaptopropionate], in data set [1], the Km is 670 ± 40 µM.
Consider “LovD (simvastatin synthase) (Aspergillus terreus; C40A)”, for which, in data set [2], the Km turned out to be 0.80 ± 0.21 mM and the kcat is 0.62 ± 0.05 min⁻¹. Further, the Km in data set [3] was 0.63 ± 0.06 mM.
For “LovD (simvastatin synthase) (Aspergillus terreus; C40A/C60N)”, in data set [2], the Km was found to be 0.82 ± 0.10 mM and the kcat worked out at 0.60 ± 0.02 min⁻¹. Further, the Km in data set [3] is on record as 0.61 ± 0.03 mM.
For “LovD (simvastatin synthase) (Aspergillus terreus; C60A)”, in data set [2], the Km was found to be 0.81 ± 0.19 mM and the kcat amounted to 0.60 ± 0.04 min⁻¹. Besides, the Km in data set [3] was determined as 0.58 ± 0.03 mM.

B1: LovD (simvastatin synthase) (Aspergillus terreus) (protein)
chain: T1 sequence (Q9Y7D1 1-413)
For the molecule B1, in data set [4], the Km is given as 0.78 ± 0.12 mM and the kcat is 0.62 ± 0.03 min⁻¹.
